Experimental findings from PMC7374170 (2020) are described below.

A word on the Kd: it is the concentration at which binding is half-saturated.

Values joined by “and” are separate entries in the source; they are usually repeats but may differ in a detail not shown here. Equal values may be shown once.

First the molecules themselves.
B2: TRIB3 (tribbles pseudokinase 3), purified protein (natural protein)
chain: MRATPLAAPAGSLSRKKRLELDDNLDTERPVQKRARSGPQPRLPPCLLPLSPPTAPDRATAVATASRLGPYVLLEPEEGGRAYQALHCPTGTEYTCKVYPVQEALAVLEPYARLPPHKHVARPTEVLAGTQLLYAFFTRTHGDMHSLVRSRHRIPEPEAAVLFRQMATALAHCHQHGLVLRDLKLCRFVFADRERKKLVLENLEDSCVLTGPDDSLWDKHACPAYVGPEILSSRASYSGKAADVWSLGVALFTMLAGHYPFQDSEPVLLFGKIRRGAYALPAGLSAPARCLVRCLLRREPAERLTATGILLHPWLRQDPMPLAPTRSHLWEAAQVVPDGLGLDEAREEEGDREVVLYG

Assay [1] deals with B2. Kind of assay: SPR.
The target in assay [2] is T1, SAH-JGZ4, stapled JGZ peptide (UniProt P00533, two units of nonnatural alkenyl amino acids S5 at the relative positions i and i + 4, cross-linked by ring-closing olefin metathesis). Kind of assay: SPR.
The target in a further assay is SAH-JGZ2. Kind of assay: SPR. A general note: SPR reads the build-up and loss of mass on a sensor chip optically.
Assay [3] concerns the target T1, SAH-JGZ4, stapled JGZ peptide. Kind of assay: SPR. The source holds these as a separate data set.
Assay [4] shares this target. Kind of assay: FP.
A further assay concerns the target JGZ-M10. Kind of assay: SPR.
For the next assay, the target named is JGZ-M4. Kind of assay: SPR.
The target of a further assay is JGZ-M12. Kind of assay: SPR.
Another assay has as its target JGZ-M2. Kind of assay: SPR.
Another assay deals with JGZ-M11. Kind of assay: SPR.
The target of the next assay is JGZ-M15. Kind of assay: SPR.
The target in the next assay is JGZ-M6. Kind of assay: SPR.
The next assay addresses JGZ-M13. Kind of assay: SPR.
The next assay addresses JGZ-M1. Kind of assay: SPR.

B1: JMA2 peptide with the Leu-to-Val substitution (peptide)
chain: NQALLRIVKETEFK
The molecule B1 displayed a dissociation constant Kd in [1] of 5370 nM.

For B2, the Kd in assay [2] was 84.1 nM and 66.1 nM; with SAH-JGZ2, 235 nM; in assay [3], 137 nM; in assay [4] it was 55.4 nM; in the assay with JGZ-M10, 337 nM; with JGZ-M4, 2470 nM. For the same molecule, the dissociation constant (Kd) with JGZ-M12 is 402 nM; with JGZ-M2 it was 424 nM; with JGZ-M11, 892 nM; with JGZ-M15 it was 1160 nM; in the assay with JGZ-M6, 1210 nM; with JGZ-M13, 796 nM. The molecule also came in with a Kd in the assay with JGZ-M1 of 642 nM.

B3: JMA2 peptide with the Leu-to-Ile substitution (peptide)
chain: NQALLRIIKETEFK
In assay [1], B3 gave a Kd of 1060 nM.
